For assay [1], the target named is Gi3 heterotrimer of the BRET-based Gi-activation sensor (Gai3-RlucII / GFP10Gγ2 / Gβ1) (UniProt P08754).
For assay [2], the target named is Gs protein (human (endogenous in HEK293T)) (UniProt P63092).

Results on 4 substances are retold here after PMC9718833.

UniProt P63092, sequence (P63092 whole entry, looked up): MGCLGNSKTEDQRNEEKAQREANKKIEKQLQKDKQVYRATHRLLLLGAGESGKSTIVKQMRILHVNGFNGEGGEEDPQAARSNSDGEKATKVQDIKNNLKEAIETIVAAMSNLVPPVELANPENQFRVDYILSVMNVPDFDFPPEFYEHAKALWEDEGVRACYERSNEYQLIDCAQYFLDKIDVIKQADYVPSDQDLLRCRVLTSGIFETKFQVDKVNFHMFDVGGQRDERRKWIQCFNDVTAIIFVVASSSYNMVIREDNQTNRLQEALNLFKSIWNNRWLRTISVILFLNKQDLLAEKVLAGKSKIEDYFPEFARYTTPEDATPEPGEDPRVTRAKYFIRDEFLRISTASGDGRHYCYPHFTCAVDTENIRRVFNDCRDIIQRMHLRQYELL
UniProt P08754, sequence (P08754 whole entry, chain 1 of 3): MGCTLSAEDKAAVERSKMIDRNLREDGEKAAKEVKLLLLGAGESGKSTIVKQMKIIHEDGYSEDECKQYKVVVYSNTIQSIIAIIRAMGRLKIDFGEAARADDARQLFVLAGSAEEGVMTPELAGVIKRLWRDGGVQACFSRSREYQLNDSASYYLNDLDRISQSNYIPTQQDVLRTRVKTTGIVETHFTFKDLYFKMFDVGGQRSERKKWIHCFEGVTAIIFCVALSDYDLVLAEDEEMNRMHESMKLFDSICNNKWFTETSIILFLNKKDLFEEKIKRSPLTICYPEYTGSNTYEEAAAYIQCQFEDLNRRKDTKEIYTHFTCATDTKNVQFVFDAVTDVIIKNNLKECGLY
UniProt P08754, sequence (P62873 whole entry, chain 2 of 3, further chain): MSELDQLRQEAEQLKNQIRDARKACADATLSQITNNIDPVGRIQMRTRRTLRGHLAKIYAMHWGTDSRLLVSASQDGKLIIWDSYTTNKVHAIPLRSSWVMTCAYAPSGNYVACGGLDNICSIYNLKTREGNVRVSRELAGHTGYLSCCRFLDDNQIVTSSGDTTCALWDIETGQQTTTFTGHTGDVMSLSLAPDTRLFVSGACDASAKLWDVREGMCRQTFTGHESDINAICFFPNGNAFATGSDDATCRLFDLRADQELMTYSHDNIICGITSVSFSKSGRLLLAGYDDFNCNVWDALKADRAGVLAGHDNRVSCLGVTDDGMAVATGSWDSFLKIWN
UniProt P08754, sequence (P59768 whole entry, chain 3 of 3, further chain): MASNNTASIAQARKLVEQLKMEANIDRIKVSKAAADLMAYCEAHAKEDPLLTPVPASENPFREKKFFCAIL

On to “HA-tagged human M1 muscarinic acetylcholine receptor (CHRM1) A424K (from UniProt P11229 1-460)”, for which the increase of the Emax of CHRM1 activation of Gi compared to WT CHRM1, BRET-based Gi-activation (Gi3) sensor in HEK293T, carbachol (% increase of Emax against WT) in assay [1] turned out to be 31.

For the substance “HA-tagged human M1 muscarinic acetylcholine receptor (CHRM1) E221K (from UniProt P11229 1-460)”, the increase of the Emax of CHRM1 activation of Gi compared to WT CHRM1, BRET-based Gi-activation (Gi3) sensor in HEK293T, carbachol (% increase of Emax against WT) in assay [1] is 30.

The substance “HA-tagged human M1 muscarinic acetylcholine receptor (CHRM1) L131F (from UniProt P11229 1-460)” yielded an increase of the Emax of Gs-dependent cAMP production following carbachol, EPAC-BRET sensor in HEK293T with 500 nM of the Gq inhibitor YM-254890, against WT CHRM1 (% increase of Emax) in assay [2] of 51.

On to “HA-tagged human M1 muscarinic acetylcholine receptor (CHRM1) R218Q (from UniProt P11229 1-460)”, for which the increase of the Emax of Gs-dependent cAMP production following carbachol, EPAC-BRET sensor in HEK293T with 500 nM of the Gq inhibitor YM-254890, against WT CHRM1 (% increase of Emax) in assay [2] is 17.
